Assay results reported in article PMC7596816 (The Journal of Experimental Medicine, 2020).

T1: PfCSP_(71–104) (N-CSP construct) (Plasmodium falciparum, UniProt P19597)
T1 construct: Plasmodium falciparum circumsporozoite protein residues 71–104, cloned into a pETM-22 vector; pETM-22 adds, as far as I recall, an N-terminal thioredoxin and His6 with a 3C protease site; source: E. coli BL21(DE3), purified (HisTrap, SEC)
T1 chain: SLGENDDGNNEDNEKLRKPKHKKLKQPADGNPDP

T2: PfCSP_(81–98) peptide (Plasmodium falciparum, UniProt P19597)
T2 construct: Plasmodium falciparum circumsporozoite protein residues 81–98; Only residues 81–92 are resolved in the crystal structure; also called N-CSP peptide; source: synthetic peptide, bought: GenScript
T2 chain: EDNEKLRKPKHKKLKQPA

B1: 5D5 IgG (5D5 variable regions on human Igγ1 and Igκ, for non-yeast display experiments) (antibody, V domains shown)
VH: QVHLQQSGGEVARPGASVKLSCKASGYTFTGYGLSWVKQRTGQGLEWIGEIYPRSGNTYYNEKFKGKATLTADKSSSTAYMELRSLTSEDSAVYFCARSWGNSSFVYWGQGTLVTVSA
VL: SIVMTQTPKFLLVSAGDRVTITCKASQSVTNDVTWYQQKPGQSPKLLIYYASNRYTGVPDRFTGSGYGTDFTFTISTVQAEDLAVYFCQQDYSSPFTFGSGTKLEIK
notes: as the heavy chain of m1 (5D5 VH + human Igγ1-CH1); two residues that replace the two stop codons of the Fab heavy chain vector; human immunoglobulin gamma-1 constant region, the part after the Fab heavy chain through the CH2 and CH3 domains; as the light chain of m1 (5D5 VL + human Igκ); Chimeric human IgG1; detected with anti-human IgG1 or anti-human IgG secondary antibodies; also called mAb …
B2: 5D5 Fab expressed in HEK293F cells (complex glycan at H.Asn98) (Fab, V domains shown)
VH: B1 VH
VL: B1 VL
notes: murine mAb 5D5 VH cloned immediately upstream of human Igγ1-CH1; murine mAb 5D5 VL cloned immediately upstream of human Igκ; Chimeric Fab (mouse variable, human constant domains); The crystal structure used this glycoform; also called HEK293F–expressed 5D5 Fab; source: HEK293F, transient cotransfection, purified (KappaSelect, MonoS, SEC)

Columns and labels:
[1] = target: PfCSP on the surface of live Pf NF54 sporozoites (Plasmodium falciparum NF54 (endogenous in sporozoites)) (UniProt P19597); assay: flow cytometry on cells; imaging flow cytometry (ImageStreamX Mk II) of live (propidium iodide-negative) Pf salivary gland sporozoites; mAb 1 µg/ml, 30 min 4°C, Cy5 anti-human IgG1
[2] = target: T1, PfCSP_(71–104) (N-CSP construct); assay: ELISA; PfCSP71–104 coated at 50 ng/well; mAb at 4.00, 1.00, 0.25 and 0.06 µg/ml; goat anti-human IgG-HRP; area under the curve; details: both partners purified
[3] = target: PfCSP on the surface of live Pf NF54 sporozoites (Plasmodium falciparum NF54 (endogenous in sporozoites)) (UniProt P19597); assay: flow cytometry on cells; imaging flow cytometry (ImageStreamX Mk II) of live (propidium iodide-negative) Pf midgut sporozoites isolated from oocysts; mAb 1 µg/ml, 30 min 4°C, Cy5 anti-human IgG1
PfCSP_(81–98) peptide = target: T2, PfCSP_(81–98) peptide; assay: crystal structure; 5D5 Fab and PfCSP81–98 peptide mixed 1:5; 20% (wt/vol) PEG 3350, 0.2 M di-ammonium citrate; 1.85 Å; details: both partners purified
[4] = target: T1, PfCSP_(71–104) (N-CSP construct); assay: SEC; 5D5 Fab complexed with PfCSP71–104 at 1:1 molar ratio, with or without 100-fold molar excess of heparin sodium salt; Superdex 200 Increase 10/300 GL; peak fractions on non-reducing SDS-PAGE; details: both partners purified

PfCSP on the surface of live Pf NF54 sporozoites (Plasmodium falciparum NF54 (endogenous in sporozoites)), sequence (P19597 19-374): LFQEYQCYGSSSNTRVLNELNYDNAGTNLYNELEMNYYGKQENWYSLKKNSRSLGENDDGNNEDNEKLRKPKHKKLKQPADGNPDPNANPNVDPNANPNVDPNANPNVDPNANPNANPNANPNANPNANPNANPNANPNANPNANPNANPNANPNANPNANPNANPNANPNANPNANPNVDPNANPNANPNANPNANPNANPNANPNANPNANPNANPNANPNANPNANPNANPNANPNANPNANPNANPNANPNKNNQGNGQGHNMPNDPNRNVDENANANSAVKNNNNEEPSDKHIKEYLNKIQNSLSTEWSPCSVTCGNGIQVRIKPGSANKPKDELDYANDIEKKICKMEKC

Row | Binder | fold decrease in MFI of mAb-bound sporozoites against mAb 1210 [1] | mAb-bound sporozoites (pos1) of tot1 487, Exp 2 [1] | mAb-bound sporozoites (pos1) of tot1 545, Exp 1 [1] | mAb-bound sporozoites (pos1) of tot1 1096, Exp 3 [1] | proportion of mAb-bound sporozoites [1] | binding result [2] | mAb-bound sporozoites (pos1) of tot1 262, Exp 1 [3] | mAb-bound sporozoites (pos1) of tot1 728, Exp 2 [3] | mAb-bound sporozoites (pos1) of tot1 1,456, Exp 3 [3] | binding result (PfCSP_(81–98) peptide) | binding result [4]
1 | B1 | 2 fold | 82 sporozoites | 176 sporozoites | 316 sporozoites | 27% | binds | 67 sporozoites | 229 sporozoites | 366 sporozoites |  | 
2 | B2 |  |  |  |  |  |  |  |  |  | binds | binds
